According to EP4541814A1 (Cytiva BioProcess R&D AB, dated 2025):

B1: Candidate 4A-1: vh342 fusion protein (SEQ ID NO:163) (VHH)
VHH: QVQLQESGGGLVQPGGSLRLSCAASGRTLSDYTMGWFRQAPGKQREFVAAISWSGAYTKYTDSVKGRFTISRDNAKTTVYLQMNSLKPEDTAVYYCAAGPTGLLSKKATPADYDYWGQGTQVTVSS
B2: Candidate 4A-2: vh343 fusion protein (SEQ ID NO:164) (VHH)
VHH: EVQLVESGGGLVQAGGSLRLSCAASGRTLSDYTMGWFRQAPGKEREFVVAISWSGAYTKYADSVKGRFTISRDNAKNTMYLQMNSLKPEDTAVYYCAAGPTGLLSKKATPADYDYWGQGTQVTVSS
B3: vh428 (SEQ ID NO:146) fused to SEQ ID NO:160, Example 5 (VHH)
chain (part 1 of 2): QVQLQQSGGGSVQAGGSLRLSCTISGRTLSDFTMAWFRQRPGKEREFVAAISWSGAYTYYADSVKGRFTISRDNAKNTVYLQMNSLKPEDTAVYYCAAGPTGLLSRKTTPADYQYWGQGTQVTVSS
chain (part 2 of 2): not shown
B4: vh118 (SEQ ID NO:80) fused to SEQ ID NO:160, Example 5 (VHH)
chain (part 1 of 2): QVQLQQSGGGSVQAGGSLRLSCTISGRTLSDYTMGWFRQRPGKEREFVAAISWSGAYTKYADSVKGRFTISRDNAKNTVYLQMNSLKPEDTAVYYCAAGPTGLLSKKATPADYDYWGQGTQVTVSS
chain (part 2 of 2): not shown
B5: vh374 (SEQ ID NO:144) fused to SEQ ID NO:160, Example 5 (VHH)
chain (part 1 of 2): QVQLQQSGGGSVQAGGSLRLSCTSSGRTLSDFTMAWFRQRPGRAREFVAAISWSGAYTYYTDSVKGRFTISRDNAKNTVFLQMQSLKPEDTAIYYCAAGPTGLLSRKTTPADYQYWGQGTQVTVSS
chain (part 2 of 2): not shown
B6: vh359 (SEQ ID NO:145) fused to SEQ ID NO:160, Example 5 (VHH)
chain (part 1 of 2): QVQLVESGGGSVQAGGSLSLSCTISGRTLSDFTMAWFRQRPGKEREFVAAISWSGAYTYYTDSVKGRFTISRDNAKNTVYLQMQSLKPEDTAVYYCAAGPTGLLSRKTTPADYQYWGQGTQVTVSS
chain (part 2 of 2): not shown
B7: vh118 (SEQ ID NO:80), Example 3 construct (VHH)
VHH: QVQLQQSGGGSVQAGGSLRLSCTISGRTLSDYTMGWFRQRPGKEREFVAAISWSGAYTKYADSVKGRFTISRDNAKNTVYLQMNSLKPEDTAVYYCAAGPTGLLSKKATPADYDYWGQGTQVTVSS
B8: vh344 (SEQ ID NO:98) (VHH)
VHH: QVQLQQSGGGSVQAGGSLRLSCAISGRTLSDYTMGWFRQRPGKEREFVAAISWSGAYTKYADSVKGRFTISRDNAKNTVYLQMNSLKPEDTAIYYCAAGPTGLLSKKATPADYDYWGQGTQVTVSS
B9: vh345 (SEQ ID NO:104) (VHH)
VHH: QVQLQQSGGGSVQAGGSLRLSCTISGRTLSDYTMGWFRQAPGKEREFVAAISWSGAYTKYADSVKGRFTISRDNAKNTVYLQMNSLKPEDTAIYYCAAGPTGLLSKKATPADYDYWGQGTQVTVSS
B10: vh346 (SEQ ID NO:114) (VHH)
VHH: QVQLQQSGGGSVQAGGSLRLSCTISGRTLSDYTMGWFRQRPGKERELVAAISWSGAYTKYADSVKGRFTISRDNAKNTVYLQMNSLKPEDTAIYYCAAGPTGLLSKKATPADYDYWGQGTQVTVSS
B11: vh247 (SEQ ID NO:89) (VHH)
VHH: QVQLVQSGGGSVQAGGSLRLSCTISGRTLSDYTMGWFRQRPGKEREFVAAISWSGAYTKYADSVKGRFTISRDNAKNTVYLQMNSLKPEDTAVYYCAAGPTGLLSKKATPADYDYWGQGTQVTVSS
B12: vh248 (SEQ ID NO:90) (VHH)
VHH: QVQLEQSGGGSVQAGGSLRLSCTISGRTLSDYTMGWFRQRPGKEREFVAAISWSGAYTKYADSVKGRFTISRDNAKNTVYLQMNSLKPEDTAVYYCAAGPTGLLSKKATPADYDYWGQGTQVTVSS
B13: vh249 (SEQ ID NO:91) (VHH)
VHH: QVQLQESGGGSVQAGGSLRLSCTISGRTLSDYTMGWFRQRPGKEREFVAAISWSGAYTKYADSVKGRFTISRDNAKNTVYLQMNSLKPEDTAVYYCAAGPTGLLSKKATPADYDYWGQGTQVTVSS
B14: vh250 (SEQ ID NO:92) (VHH)
VHH: QVQLQQSGGGSVQSGGSLRLSCTISGRTLSDYTMGWFRQRPGKEREFVAAISWSGAYTKYADSVKGRFTISRDNAKNTVYLQMNSLKPEDTAVYYCAAGPTGLLSKKATPADYDYWGQGTQVTVSS
B15: vh251 (SEQ ID NO:93) (VHH)
VHH: QVQLQQSGGGSVQTGGSLRLSCTISGRTLSDYTMGWFRQRPGKEREFVAAISWSGAYTKYADSVKGRFTISRDNAKNTVYLQMNSLKPEDTAVYYCAAGPTGLLSKKATPADYDYWGQGTQVTVSS
B16: vh252 (SEQ ID NO:94) (VHH)
VHH: QVQLQQSGGGSVQAGGSLKLSCTISGRTLSDYTMGWFRQRPGKEREFVAAISWSGAYTKYADSVKGRFTISRDNAKNTVYLQMNSLKPEDTAVYYCAAGPTGLLSKKATPADYDYWGQGTQVTVSS
B17: vh253 (SEQ ID NO:95) (VHH)
VHH: QVQLQQSGGGSVQAGGSLSLSCTISGRTLSDYTMGWFRQRPGKEREFVAAISWSGAYTKYADSVKGRFTISRDNAKNTVYLQMNSLKPEDTAVYYCAAGPTGLLSKKATPADYDYWGQGTQVTVSS
B18: vh332 (SEQ ID NO:96) (VHH)
VHH: QVQLQQSGGGSVQAGGSLRLSCVISGRTLSDYTMGWFRQRPGKEREFVAAISWSGAYTKYADSVKGRFTISRDNAKNTVYLQMNSLKPEDTAVYYCAAGPTGLLSKKATPADYDYWGQGTQVTVSS
B19: vh254 (SEQ ID NO:97) (VHH)
VHH: QVQLQQSGGGSVQAGGSLRLSCSISGRTLSDYTMGWFRQRPGKEREFVAAISWSGAYTKYADSVKGRFTISRDNAKNTVYLQMNSLKPEDTAVYYCAAGPTGLLSKKATPADYDYWGQGTQVTVSS
B20: vh255 (SEQ ID NO:99) (VHH)
VHH: QVQLQQSGGGSVQAGGSLRLSCTSSGRTLSDYTMGWFRQRPGKEREFVAAISWSGAYTKYADSVKGRFTISRDNAKNTVYLQMNSLKPEDTAVYYCAAGPTGLLSKKATPADYDYWGQGTQVTVSS
B21: vh256 (SEQ ID NO:100) (VHH)
VHH: QVQLQQSGGGSVQAGGSLRLSCTVSGRTLSDYTMGWFRQRPGKEREFVAAISWSGAYTKYADSVKGRFTISRDNAKNTVYLQMNSLKPEDTAVYYCAAGPTGLLSKKATPADYDYWGQGTQVTVSS
B22: vh259 (SEQ ID NO:105) (VHH)
VHH: QVQLQQSGGGSVQAGGSLRLSCTISGRTLSDYTMGWFRQRPGGEREFVAAISWSGAYTKYADSVKGRFTISRDNAKNTVYLQMNSLKPEDTAVYYCAAGPTGLLSKKATPADYDYWGQGTQVTVSS
B23: vh260 (SEQ ID NO:106) (VHH)
VHH: QVQLQQSGGGSVQAGGSLRLSCTISGRTLSDYTMGWFRQRPGQEREFVAAISWSGAYTKYADSVKGRFTISRDNAKNTVYLQMNSLKPEDTAVYYCAAGPTGLLSKKATPADYDYWGQGTQVTVSS
B24: vh261 (SEQ ID NO:107) (VHH)
VHH: QVQLQQSGGGSVQAGGSLRLSCTISGRTLSDYTMGWFRQRPGREREFVAAISWSGAYTKYADSVKGRFTISRDNAKNTVYLQMNSLKPEDTAVYYCAAGPTGLLSKKATPADYDYWGQGTQVTVSS
B25: vh262 (SEQ ID NO:108) (VHH)
VHH: QVQLQQSGGGSVQAGGSLRLSCTISGRTLSDYTMGWFRQRPGKQREFVAAISWSGAYTKYADSVKGRFTISRDNAKNTVYLQMNSLKPEDTAVYYCAAGPTGLLSKKATPADYDYWGQGTQVTVSS
B26: vh263 (SEQ ID NO:109) (VHH)
VHH: QVQLQQSGGGSVQAGGSLRLSCTISGRTLSDYTMGWFRQRPGKAREFVAAISWSGAYTKYADSVKGRFTISRDNAKNTVYLQMNSLKPEDTAVYYCAAGPTGLLSKKATPADYDYWGQGTQVTVSS
B27: vh264 (SEQ ID NO:110) (VHH)
VHH: QVQLQQSGGGSVQAGGSLRLSCTISGRTLSDYTMGWFRQRPGKDREFVAAISWSGAYTKYADSVKGRFTISRDNAKNTVYLQMNSLKPEDTAVYYCAAGPTGLLSKKATPADYDYWGQGTQVTVSS
B28: vh265 (SEQ ID NO:111) (VHH)
VHH: QVQLQQSGGGSVQAGGSLRLSCTISGRTLSDYTMGWFRQRPGKGREFVAAISWSGAYTKYADSVKGRFTISRDNAKNTVYLQMNSLKPEDTAVYYCAAGPTGLLSKKATPADYDYWGQGTQVTVSS
B29: vh266 (SEQ ID NO:112) (VHH)
VHH: QVQLQQSGGGSVQAGGSLRLSCTISGRTLSDYTMGWFRQRPGKELEFVAAISWSGAYTKYADSVKGRFTISRDNAKNTVYLQMNSLKPEDTAVYYCAAGPTGLLSKKATPADYDYWGQGTQVTVSS
B30: vh325 (SEQ ID NO:113) (VHH)
VHH: QVQLQQSGGGSVQAGGSLRLSCTISGRTLSDYTMGWFRQRPGKEIEFVAAISWSGAYTKYADSVKGRFTISRDNAKNTVYLQMNSLKPEDTAVYYCAAGPTGLLSKKATPADYDYWGQGTQVTVSS

Molecular target: T1, AAV9 viral particles (adeno-associated virus 9)
Assay: SPR (Biacore 8K+), fusion protein amine-coupled to CM5, AAV9 2E12 vp/ml, report point late binding

Row | Binder | Binding capacity AAV9 (2E12 vp/ml) (RU)
1 | B1 | 9920 RU
2 | B2 | 12400 RU

Molecular target: T1, AAV9 viral particles
Assay: SPR (Biacore 8K+), fusion protein amine-coupled to CM5, AAV9 2E12 vp/ml; response normalized to vh118

Row | Binder | Normalized AAV9 binding capacity (%)
3 | B3 | 108%
4 | B4 | 100%
5 | B5 | 102%
6 | B6 | 86.4%

Molecular target: T1, AAV9 viral particles
Assay: SPR (Biacore), polypeptide amine-coupled to CM5, AAV9 analyte; response normalized to SEQ ID NO:80

Row | Binder | Normalized AAV9 binding capacity (%)
7 | B7 | 100%
8 | B8 | 100%
9 | B9 | 101%
10 | B10 | 100%

Molecular target: T1, AAV9 viral particles
Assay: as above
Remark: another data set of the same source

Row | Binder | Normalized AAV9 binding capacity (%)
11 | B7 | 100%
12 | B11 | 106%
13 | B12 | 105%
14 | B13 | 86%
15 | B14 | 96%
16 | B15 | 99%
17 | B16 | 92%
18 | B17 | 86%
19 | B18 | 98%
20 | B19 | 73%
21 | B8 | 100%
22 | B20 | 103%
23 | B21 | 102%

Molecular target: T1, AAV9 viral particles
Assay: as above
Remark: another data set of the same source

Row | Binder | Normalized AAV9 binding capacity (%)
24 | B7 | 100%
25 | B9 | 101%
26 | B22 | 72%
27 | B23 | 77%
28 | B24 | 105%
29 | B25 | 104%
30 | B26 | 108%
31 | B27 | 92%
32 | B28 | 101%
33 | B29 | 115%
34 | B30 | 97%
35 | B10 | 100%
